Results on two molecules are retold here after publication doi:10.1101/2024.07.30.605722 (bioRxiv, 2024).

One data set addresses PDIA6 a^0 domain (human). The experiment in a line: co-sedimentation.
The data set “native MS” concerns the molecule itself. Put plainly: native MS.

“MBP fusion protein of PDIA6 b domain (domain or fragment)” returned a b amount left in the supernatant with PDIA6 a^0 domain (human) of 60%.

B1: PDIA6 (enzyme, human, UniProt Q15084 20-440, looked up)
chain: LYSSSDDVIELTPSNFNREVIQSDSLWLVEFYAPWCGHCQRLTPEWKKAATALKDVVKVGAVDADKHHSLGGQYGVQGFPTIKIFGSNKNRPEDYQGGRTGEAIVDAALSALRQLVKDRLGGRSGGYSSGKQGRSDSSSKKDVIELTDDSFDKNVLDSEDVWMVEFYAPWCGHCKNLEPEWAAAASEVKEQTKGKVKLAAVDATVNQVLASRYGIRGFPTIKIFQKGESPVDYDGGRTRSDIVSRALDLFSDNAPPPELLEIINEDIAKRTCEEHQLCVVAVLPHILDTGAAGRNSYLEVLLKLADKYKKKMWGWLWTEAGAQSELETALGIGGFGYPAMAAINARKMKFALLKGSFSEQGINEFLRELSFGRGSTAPVGGGAFPTIVEREPWDGRDGELPVEDDIDLSDVELDDLGKDEL
For the molecule B1, the “stoichiometry N” value in the data set “native MS” amounted to 2.
